# Measurements: PMC5413351, “Structural basis of protein translocation by the Vps4-Vta1 AAA ATPase” (eLife, 2017)
# Where no end group is shown, it is not given here.
# B1: Vta1^VSL (domain or fragment)
# chain: SYTKDELTKIMDRASKIEQIQKLAKYAISALNYEDLPTAKDELTKALDLLNSI
# modifications: also: homodimer
# Biological target: Vta1^VSL (S. cerevisiae, UniProt Q06263 1-330)
# Test: cryo-EM structure
# Details: both partners purified
binder,measurement,value
B1,stoichiometry N,2
